In US20080311122A1 (AstraZeneca / MedImmune, published 2008):

T1: activated HMG1 prepared from LPS stimulated THP-1 cells (human, UniProt P09429 1-215)
T1 sequence (looked up): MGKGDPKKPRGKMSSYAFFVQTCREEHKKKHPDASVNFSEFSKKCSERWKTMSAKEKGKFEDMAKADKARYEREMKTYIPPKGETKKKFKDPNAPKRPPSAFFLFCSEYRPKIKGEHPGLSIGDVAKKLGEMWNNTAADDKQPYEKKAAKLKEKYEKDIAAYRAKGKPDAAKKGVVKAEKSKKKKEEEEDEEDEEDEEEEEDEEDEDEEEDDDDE

T2: recombinant HMG1 purified from E. coli as a calmodulin binding protein (CBP) fusion protein (human, UniProt A9RA84 1-215 (Papio anubis entry))
T2 sequence: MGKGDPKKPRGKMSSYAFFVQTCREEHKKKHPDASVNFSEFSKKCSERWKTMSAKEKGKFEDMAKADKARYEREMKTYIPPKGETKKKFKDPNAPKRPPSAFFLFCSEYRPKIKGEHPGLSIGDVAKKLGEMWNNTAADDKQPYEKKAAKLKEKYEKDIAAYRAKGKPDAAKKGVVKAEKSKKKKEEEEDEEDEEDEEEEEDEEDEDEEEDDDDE

T3: HMG1 B Box peptide amino acids 150-183
T3 peptide: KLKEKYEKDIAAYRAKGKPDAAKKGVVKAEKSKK

T4: HMG1 B Box peptide amino acids 91-169
T4 construct: also called HMG1 peptide 91-169
T4 peptide: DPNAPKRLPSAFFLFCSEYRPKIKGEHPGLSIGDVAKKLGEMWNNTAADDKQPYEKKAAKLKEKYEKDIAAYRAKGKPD

T5: HMG1 purified from bovine (calf) thymus (bovine, UniProt P10103 2-215)
T5 construct: also called Calf thymus HMGB1; thymus HMG1
T5 sequence (looked up): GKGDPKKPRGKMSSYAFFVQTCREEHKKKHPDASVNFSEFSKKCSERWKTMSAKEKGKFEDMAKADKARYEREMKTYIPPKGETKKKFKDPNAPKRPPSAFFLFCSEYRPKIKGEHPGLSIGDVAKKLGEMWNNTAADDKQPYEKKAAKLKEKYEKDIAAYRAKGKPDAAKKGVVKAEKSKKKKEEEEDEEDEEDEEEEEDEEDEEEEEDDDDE

T6: HMG2 (UniProt P40673 2-209, limits assumed)
T6 construct: also called HMGB2; HMBG2
T6 sequence (looked up): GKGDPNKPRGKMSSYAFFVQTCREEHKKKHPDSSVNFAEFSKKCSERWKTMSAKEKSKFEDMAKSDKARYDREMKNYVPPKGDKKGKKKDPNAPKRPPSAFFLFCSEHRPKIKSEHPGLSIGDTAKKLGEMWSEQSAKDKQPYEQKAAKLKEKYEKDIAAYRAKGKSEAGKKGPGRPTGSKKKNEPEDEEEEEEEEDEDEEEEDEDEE

T7: recombinant rat HMGB-1, Europium-labeled (rat, UniProt P63159 1-215, limits assumed, Europium label, molar ratio of HMGB-1 to Eu 1:5)
T7 construct: also called Europium-labeled HMGB-1; recombinant HMG1 (Thp-1 assay)
T7 sequence (looked up): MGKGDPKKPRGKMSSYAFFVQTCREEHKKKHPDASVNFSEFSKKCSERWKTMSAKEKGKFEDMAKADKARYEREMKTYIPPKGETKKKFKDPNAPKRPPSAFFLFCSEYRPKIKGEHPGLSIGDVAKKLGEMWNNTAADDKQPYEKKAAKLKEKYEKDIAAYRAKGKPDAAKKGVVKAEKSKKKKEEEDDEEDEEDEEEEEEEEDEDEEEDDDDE


Columns and labels:
[1] = target: T1, activated HMG1 prepared from LPS …; assay: cell-based or functional assay
[2] = target: T2, recombinant HMG1 purified from E. coli …; assay: cell-based or functional assay
[3] = target: T3, HMG1 B Box peptide amino acids 150-183; assay: ELISA, wells coated with HMG1 B Box peptide 150-183 at 10 ug/ml
Method: (§1) The plate was then blocked with 4% milk powder dissolved in PBS at 37° C. for 1 hour. The blocking solution was removed and replaced with human anti-HMG1 antibodies at various concentrations (see FIGS. 5A-B). […] HRP activity was detected with Sureblue HRP substrate (KPL). Plates were read at 450 nm using a Kinetic Microplate Reader (Molecular Devices). […] After washing and blocking with 1% BSA in PBS, the biotinylated peptides were individually added into the avidin coated wells and incubated for 30 min at room temperature. The serial diluted antibody G4, S16 and S6 at the initial concentration at 10 μg/ml were then transferred into the wells followed by adding mouse anti human IgG-HRP conjugate (Pierce). Detection was accomplished by adding 50 μl of tetramethylbenzidine (TMB) substrate (KPL) and the absorbance was read at […].

[4] = target: T4, HMG1 B Box peptide amino acids 91-169; assay: ELISA, wells coated with HMG1 B Box peptide 91-169 at 10 ug/ml
Method: as §1

[5] = target: T5, HMG1 purified from bovine (calf) thymus; assay: ELISA, wells coated with calf thymus HMGB1 at 5 ug/mL, antibody at 10 ug/mL, anti-human kappa/lambda-HRP, OD 490
Method: (§2) Binding to HMG1 vs. HMG2: Ultra high-binding ELISA plates (ThermoLab systems, #3855) were coated with either 5 ug/mL of Calf thymus HMGB1 or HMBG2 diluted in 10 mM Phosphate buffered saline (PBS), pH 7.2 and incubate overnight at 4 degrees. The plates were washed twice with Ca and Mg free PBS and 100 microliters of anti-HMGB1 antibody diluted in 10 mM PBS, pH 7.2+1% bovine serum albumin (BSA) to a final concentration of 10 ug/mL was added to each well and the plates were incubated 1 hour at room temperature. The wells were washed three times with 100 μl of PBS, pH 7.2. HRP labeled goat-anti-human IgG Kappa-chain (KPL, #14-10-10) and goat-anti-human IgG Lambda-chain (KPL, #14-10-11) were diluted in 10 mM PBS+1% BSA 1:1000 and 100 μl were added to each well and incubated for 1 hour at room temperature. The wells were then washed three times with 100 μl of PBS, pH 7.2. OPD substrate (Pierce chemical company, #34006) was prepared following the manufacturers instructions and 100 μl of prepared substrate was added to each well and the plates incubated at room temperature in the dark for 20-30 minutes. The reaction was stopped with the addition of 100 μl of 2M H₂SO₄, and the plates read on a plate reader at a wavelength of 490 nm.

HMG2 = target: T6, HMG2; assay: ELISA, wells coated with HMGB2 at 5 ug/mL, OD 490
Method: as §2

[6] = target: T7, recombinant rat HMGB-1, Europium-labeled; assay: inhibition of binding of Eu-labeled HMGB-1 to THP-1 cells
Method: HMG1 binding to THP-1 Cells: Recombinant rat HMGB-1 was labeled using Eu-labelling Kit from PerkinElmer. Molar ratio of HMGB-1 to Eu is 1:5. THP-1 were cultured as the protocol from ATCC. Cells were harvested and suspended at concentration 1×10⁶/ml in assay buffer containing 1×DELFIA L*R binding buffer (PerkinElmer), 50% of DELFIA stabilizer (PerkinElmer) and 0.05% of sodium azide. 100 μl of cells (1×10⁵) was added into wells in 96 well cell culture plate. The plate was incubated with gentle shaking at 4° C. for one hour. 100 μl of assay buffer containing 2 nM of Europium-labeled HMGB-1 mixed with various concentrations (333, 166.5, 83.25, 41.6, 20.8, 10.4 and 5.2 nM) of human anti-HMGB1 antibodies E11 or G2 or soluble human RAGE-Fc, were added into each wells respectively. After one hour incubation with gentle shaking at 4° C., the cells were washed four times with 1×L*R wash buffer (PerkinElmer) by centrifuging at 1200 rpm×5 min. 200 μl of enhancement solution was added into each well to dissociate and enhance Eu fluorescence at 615 nm. The fluorescence was measured with Wallac Victor Fluorometer. Assay was performed in triplicate and human antibody R3-47 was used the negative isotype control.

[7] = target: T2, recombinant HMG1 purified from E. coli …; assay: ELISA, rHMG1 preincubated with antibody, coated RAGE-Fc
Method: HMG1 binding to RAGE-Ig by ELISA: 50 μl/well of RAGE-Fc fusion protein at 5 μg/ml in PBS was added to each well of an ELISA plate and incubated overnight at 4° C. The plate was then blocked with 200 μl of 5% milk at 37° C. for 1 hr and washed 3× with PBS/Tween. 50 μl/well of diluted HMGB1 solution. For dose curves, HMGB1 concentrations started at 4 ug/ml in PBS. For antibody blocking the HMGB1 was preincubated in another plate with human anti-HMG1 antibodies or buffer, then transferred to the RAGE-coated plate. The plates were then incubated at room temperature for 2 hours and washed 3×. To detect any HMG1 bound to the immobilized RAGE-Fc a mixture of biotinylated mouse anti-HMG1 mAbs (10D4, 4H11, 3E10 and 5C12) each at 1 ug/ml, total Ab: 4 ug/ml, were added to each well and the plate was incubated for 1 hour at room temperature. The plate was then washed and Strepavidin-HPR was added to each well and incubated 15 min. The plate was then washed 3× and blotted dry. 100 μl of TMB developing agent was added and the plate read at 650 nm. Values were calculated as percent of inhibition with HMG1 alone equal to 0% inhibition. The data in FIG. 9 and summarized in Table 1 represent the average of two separate experiments.

[8] = target: T2, recombinant HMG1 purified from E. coli …; assay: BIAcore, mAb immobilized, HMG1 injected, steady-state model
Method: HMG1 Binding Affinity via BIAcore Analysis: All experiments were performed on a BIAcore 3000 instrument (BIAcore, Inc., Piscataway, N.J.). Briefly, each mAb was immobilized to a CM5 sensor chip using a standard amino coupling chemistry. Separately a reference (control) flow cell was also prepared. Two-fold, serial dilutions of HMG1 in instrument buffer were sequentially injected at a slow flow rate over the individual mAb and reference flow-cell surfaces. Following the binding and dissociation of HMG1, the mAbs surfaces were regenerated with a brief pulse of 1M NaCl-50 mM NaOH. At the end of each experiment, the binding curves were evaluated using a steady-state model available through the BIA evaluation software supplied by BIAcore, Inc. (Piscataway, N.J.).

Row | IC50, inhibition of native activated HMG1 stimulated IL-6 release from human PBMC [1] [nM] | IC50, inhibition of HMG1 stimulated NO release from macrophages [2] [µg/mL] | IC50, inhibition of rHMG1 stimulated IL-1β release from human PBMC [2] [µg/mL] | IC50, inhibition of rHMG1 stimulated IL-6 release from human PBMC [2] [nM] | binding result [3] | binding result [4] | binding result [5] | IC50, inhibition of rHMG1 stimulated IL-12 release from human PBMC [2] [µg/mL] | IC50, inhibition of rHMG1 stimulated TNF-α release from human PBMC [2] [µg/mL] | IC50 [6] [nM] | percent inhibition of HMG1 binding to RAGE-Fc [7] [%] | Kd [8] [nM] | Binder | binding result (HMG2)
1 | 11.5 | 41.7 | 0.0809 | 0.162 | no binding (tested: 10 ug/ml (log 1.00)) | no binding (tested: 10 ug/ml (log 1.00)) | binds |  |  |  |  |  | anti-HMG1 antibody S17 (antibody, V domains shown) VH: EVQLLESGGGLVQPGGSLRLSCAASGFTFSYYDMHWVRQAPGKGLEWVSRISPSGGYTWYADSVKGRFTISRDNSKNTLYLQMNSLRAEDTAVYYCTRGRYTSGWHEYFDPWGQGTLVTVSS VL: DIQMTQSPSSLSASVGDRVTITCRASQSIGTYLNWYQQKPGTAPKVLIYAASSLQSGVPSRFSGSGSGTDFTLTISSLQPEDFSTYYCQQSYNTPRTFGQGTKLEIK | no binding (tested: 10 ug/mL (not on the sheet))
2 |  |  | 5.03 | 0.994 | no binding (tested: 10 ug/ml (log 1.00)) | no binding (tested: 10 ug/ml (log 1.00)) | binds | 1.26 | 1.35 | 73.3 |  |  | anti-HMG1 antibody G2 (antibody, V domains shown) VH: EVQLLESGGGLVQPGGSLRLSCAASGFTFSWYKMQWVRQAPGKGLEWVSGISPSGGSTAYADSVKGRFTISRDNSKNTLYLQMNSLRAEDTAVYYCAKMGLFNTGNSYVDYWGQGTLVTVSS VL: AQSELTQPPSVSEAPGQRVTISCSGSTSNIGNNAVIWYQQLPGKAPKLLIYYDDLLPSGVSDRFSGSKSGTSGSLAISGLQSEDEADYYCASWDDNLNGPLFGGGTKLTVL | no binding (tested: 10 ug/mL (not on the sheet))
3 |  |  | 2.59 | 0.324 | no binding (tested: 10 ug/ml (log 1.00)) | no binding (tested: 10 ug/ml (log 1.00)) | binds | 1.13 | 0.875 |  | ≥ 35 | 54 | anti-HMG1 antibody S10 (antibody, V domains shown) VH: EVQLLESGGGLVQPGGSLRLSCAASGFTFSWYDMWWVRQAPGKGLEWVSWIVPSGGITAYADSVKGRFTISRDNSKNTLYLQMNSLRAEDTATYYCARGNYGPSPFDYWGQGTLVTVSS VL: DIQMTQSPGTLSLSPGERATLSCRATQSVRKNFLAWYQQKPGQAPRLLIYDASSRATGIPDRFSGSGSGTDFTLTISRLEPEDFAVYYCQQYGNSPIIFGQGTRLEIK | no binding (tested: 10 ug/mL (not on the sheet))
